From article PMC7954794, “Protein context shapes the specificity of SH3 domain-mediated interactions in vivo” (Nature Communications, 2021)

System: growth of yeast strains under 51 stress conditions
Assay: Growth assays in 51 stress conditions (Fig. 1E-F, S2D, S5B)
Assay type: cell-based, Saccharomyces cerevisiae
Design: key to Growth (Fig. S2D) / growth of ABP1 SH3-swapped strains in stress condition: log2 colony size, average of median per strain (growth score)
Details: ABP1 SH3-swapped strains
Protocol: All WT, SH3-deleted, KO (except for CDC25 which is the only essential SH3-containing gene in yeast), ABP1 SH3-swapped, and SLA1 SH3-shuffled strains were grown on omnitrays in 1536 formats and robotically manipulated with a pin tool (the DHFR F[1,2] bait strains were used except for the KO strains). Each strain was randomly positioned in 6 replicates per plate and two plates per condition were performed, for 12 replicates per strain in total. A border of two rows and two columns of WT strains (BY4741) around the plate was used to remove border effects. Strains were grown on YPD media for two days at 30 °C. They were then replicated on 51 different media that are described in the Supplementary Table 3 and were incubated at 37 °C in a spImager custom platform with images acquired every two hours for four days. The colony sizes from plate pictures were also measured with the R package “Gitter” and the output was manually inspected. Positions with an abnormality in colony circularity were removed. The colony sizes after 74 h of incubation at 37 °C were log2 transformed and used for the analyses. First, the differences between the two plate replicates were corrected to remove plate effects. The median colony size was calculated for each strain per plate. Strains with a difference in their median colony size of more than two between the two plate replicates were removed. Finally, the average of the median colony size was calculated for each strain per condition (growth score).

B1: HOF1 (protein, UniProt Q05080 1-669, looked up)
Cytokinesis protein 2: MSYSYEACFWDPNDNGVNILLGHISQGIRSCDSMILFFKQRSELEKDYARRLGAITGKLDKDIGTNMDYGKLNETFNVVLSVEKARAQSHSKQSEILFRQIYTDTKAFAANLQARYTTLSGKIERLRMDKFNKKKGCEVLQKKLQDAQIRFRDLQLNENNMIGAKRVEHNKRELLKWESNSQEYKVQLDVLKQEYKASQKFWIHEWAQLSCELQEMENARISFLQSKLQQFATSSMETYILEQTKMDMLTNHLNSFTAADEISTFSKENGTGRLKHKTSKGDMNSSANWAQMSSISTTSKKTESYMDNIRKLSSQLKETENKRKLASIDKYEKPLPSPEVTMATQFRNSTPVIRNETKVVANPTLSLRSSPVQLQSNVDDSVLRQKPDKPRPIVGEEQLKPDEDSKNPDEKGLMVHKRNQSLSSPSESSSSNPTDFSHIKKRQSMESMTTSVSSMANSIDDSQRFAKSWNSSNRKRKSMSHLQVPSSASSRSDDGGRTPNSAHNLNEDDYNTRRDTSTSTILFKPPVAVRGTSRGHTHRQSMIMQDSSNPIEDALYEMERIQSSSKPGTKTGNIMDERGVVRDRGITVTLPIVTSEGFPVIEYAKAMYPLIGNEAPGLANFHKGDYLLITEIVNKDWYKGEVYDNDRIDRNHRIGLIPYNFIQLLHQGL
With B1 the “Growth (Fig. S2D)” value (Bathophenanthroline.0.1uM) was 10.8727, the “Growth (Fig. S2D)” value (Bathophenanthroline.10uM) was 10.6716 and the “Growth (Fig. S2D)” value (Bathophenanthroline.1uM) was 10.8166. The “Growth (Fig. S2D)” value (CaCl2.100mM) was 10.8864, the “Growth (Fig. S2D)” value (CaCl2.250mM) was 10.8461 and the “Growth (Fig. S2D)” value (CaCl2.500mM) was 10.3385. The “Growth (Fig. S2D)” value (Caffein.10mM) was 10.1794, the “Growth (Fig. S2D)” value (Caffein.2mM) was 11.0235 and the “Growth (Fig. S2D)” value (CdCl2.100uM) was 9.561. The “Growth (Fig. S2D)” value (CdCl2.10uM) was 10.9284, the “Growth (Fig. S2D)” value (CdCl2.50uM) was 9.924 and the “Growth (Fig. S2D)” value (CuSO4.1mM) was 10.5096. The “Growth (Fig. S2D)” value (CuSO4.5mM) was 8.102, the “Growth (Fig. S2D)” value (Cycloheximide.0.05.uM) was 11.0987 and the “Growth (Fig. S2D)” value (Cycloheximide.0.2.uM) was 10.6706. For the same molecule, the “Growth (Fig. S2D)” value (Cycloheximide.0.5.uM) was 10.177, the “Growth (Fig. S2D)” value (DMSO.2.) was 11.0794 and the “Growth (Fig. S2D)” value (DMSO.6.) was 9.956. For the same molecule, the “Growth (Fig. S2D)” value (DMSO.8.) was 9.269, the “Growth (Fig. S2D)” value (Ethanol.2.) was 10.828 and the “Growth (Fig. S2D)” value (Ethanol.6.) was 10.3088. For the same molecule, the “Growth (Fig. S2D)” value (Ethanol.8.) was 10.1098, the “Growth (Fig. S2D)” value (Galactose.2.) was 10.8257 and the “Growth (Fig. S2D)” value (Glycerol.2.) was 9.711. The “Growth (Fig. S2D)” value (Hydroxyurea.25mM) was 10.8274, the “Growth (Fig. S2D)” value (Hygromycin.190uM) was 11.0188 and the “Growth (Fig. S2D)” value (Hygromycin.19uM) was 11.0238. For the same molecule, the “Growth (Fig. S2D)” value (Hygromycin.95uM) was 11.0846, the “Growth (Fig. S2D)” value (MMS.0.004.) was 10.9957 and the “Growth (Fig. S2D)” value (MMS.0.02.) was 10.7428. For the same molecule, the “Growth (Fig. S2D)” value (MMS.0.04.) was 9.974, the “Growth (Fig. S2D)” value (Menadione.100uM) was 10.6873 and the “Growth (Fig. S2D)” value (Menadione.200uM) was 10.4637. The “Growth (Fig. S2D)” value (Menadione.50uM) was 10.8466, the “Growth (Fig. S2D)” value (NaCl.0.25M) was 10.8422 and the “Growth (Fig. S2D)” value (NaCl.1M) was 9.66. For the same molecule, the “Growth (Fig. S2D)” value (Nitroquinoline.10uM) was 10.7373, the “Growth (Fig. S2D)” value (Nitroquinoline.50uM) was 10.5646 and the “Growth (Fig. S2D)” value (Nystatin.0.01uM) was 10.9834. For the same molecule, the “Growth (Fig. S2D)” value (Nystatin.0.1uM) was 10.9984, the “Growth (Fig. S2D)” value (Raffinose.2.) was 11.035 and the “Growth (Fig. S2D)” value (Rapamycin.10nM) was 9.895. The “Growth (Fig. S2D)” value (Rapamycin.50nM) was 9.528, the “Growth (Fig. S2D)” value (SC.pH3) was 10.4278 and the “Growth (Fig. S2D)” value (SC.pH6) was 10.9986. For the same molecule, the “Growth (Fig. S2D)” value (SDS.0.01.) was 11.0079, the “Growth (Fig. S2D)” value (SDS.0.02.) was 11.0441 and the “Growth (Fig. S2D)” value (SDS.0.05.) was 10.886. For the same molecule, the “Growth (Fig. S2D)” value (Sorbitol.10mM) was 11.0139, the “Growth (Fig. S2D)” value (Sorbitol.1mM) was 11.1055 and the “Growth (Fig. S2D)” value (Sorbitol.5mM) was 10.9626.

B2: FUS1 (protein, UniProt P11710 1-512, looked up)
Nuclear fusion protein FUS1: MVATIMQTTTTVLTTVAAMSTTLASNYISSQASSSTSVTTVTTIATSIRSTPSNLLFSNVAAQPKSSSASTIGLSIGLPIGIFCFGLLILLCYFYLKRNSVSISNPPMSATIPREEEYCRRTNWFSRLFWQSKCEDQNSYSNRDIEKYNDTQWTSGDNMSSKIQYKISKPIIPQHILTPKKTVKNPYAWSGKNISLDPKVNEMEEEKVVDAFLYTKPPNIVHIESSMPSYNDLPSQKTVSSKKTALKTSEKWSYESPLSRWFLRGSTYFKDYGLSKTSLKTPTGAPQLKQMKMLSRISKGYFNESDIMPDERSPILEYNNTPLDANDSVNNLGNTTPDSQITSYRNNNIDLITARPHSVIYGTTAQQTLETNFNDHHDCNKSTEKHELIIPTPSKPLKKRKKRRQSKMYQHLQHLSRSKPLPLTPNSKYNGEASVQLGKTYTVIQDYEPRLTDEIRISLGEKVKILATHTDGWCLVEKCNTQKGSIHVSVDDKRYLNEDRGIVPGDCLQEYD
For B2, the “Growth (Fig. S2D)” value (Bathophenanthroline.0.1uM) was 10.7893, the “Growth (Fig. S2D)” value (Bathophenanthroline.10uM) was 10.6947 and the “Growth (Fig. S2D)” value (Bathophenanthroline.1uM) was 10.778. The “Growth (Fig. S2D)” value (CaCl2.100mM) was 10.8206, the “Growth (Fig. S2D)” value (CaCl2.250mM) was 10.8008 and the “Growth (Fig. S2D)” value (CaCl2.500mM) was 10.319. The “Growth (Fig. S2D)” value (Caffein.10mM) was 10.109, the “Growth (Fig. S2D)” value (Caffein.2mM) was 11.0074 and the “Growth (Fig. S2D)” value (CdCl2.100uM) was 9.381. For the same molecule, the “Growth (Fig. S2D)” value (CdCl2.10uM) was 10.9194, the “Growth (Fig. S2D)” value (CdCl2.50uM) was 9.89 and the “Growth (Fig. S2D)” value (CuSO4.1mM) was 10.4955. The “Growth (Fig. S2D)” value (CuSO4.5mM) was 8.084, the “Growth (Fig. S2D)” value (Cycloheximide.0.05.uM) was 11.1072 and the “Growth (Fig. S2D)” value (Cycloheximide.0.2.uM) was 10.666. For the same molecule, the “Growth (Fig. S2D)” value (Cycloheximide.0.5.uM) was 10.227, the “Growth (Fig. S2D)” value (DMSO.2.) was 11.051 and the “Growth (Fig. S2D)” value (DMSO.6.) was 9.944. The “Growth (Fig. S2D)” value (DMSO.8.) was 9.179, the “Growth (Fig. S2D)” value (Ethanol.2.) was 10.7876 and the “Growth (Fig. S2D)” value (Ethanol.6.) was 10.3273. For the same molecule, the “Growth (Fig. S2D)” value (Ethanol.8.) was 10.1194, the “Growth (Fig. S2D)” value (Galactose.2.) was 10.7919 and the “Growth (Fig. S2D)” value (Glycerol.2.) was 9.646. The “Growth (Fig. S2D)” value (Hydroxyurea.25mM) was 10.8071, the “Growth (Fig. S2D)” value (Hygromycin.190uM) was 11.0027 and the “Growth (Fig. S2D)” value (Hygromycin.19uM) was 11.0061. The “Growth (Fig. S2D)” value (Hygromycin.95uM) was 11.0532, the “Growth (Fig. S2D)” value (MMS.0.004.) was 10.9625 and the “Growth (Fig. S2D)” value (MMS.0.02.) was 10.7139. The “Growth (Fig. S2D)” value (MMS.0.04.) was 10.0597, the “Growth (Fig. S2D)” value (Menadione.100uM) was 10.6065 and the “Growth (Fig. S2D)” value (Menadione.200uM) was 10.4266. For the same molecule, the “Growth (Fig. S2D)” value (Menadione.50uM) was 10.8061, the “Growth (Fig. S2D)” value (NaCl.0.25M) was 10.6954 and the “Growth (Fig. S2D)” value (NaCl.1M) was 9.8389. The “Growth (Fig. S2D)” value (Nitroquinoline.10uM) was 10.6415, the “Growth (Fig. S2D)” value (Nitroquinoline.50uM) was 10.6237 and the “Growth (Fig. S2D)” value (Nystatin.0.01uM) was 11.0226. The “Growth (Fig. S2D)” value (Nystatin.0.1uM) was 11.0679, the “Growth (Fig. S2D)” value (Raffinose.2.) was 11.0059 and the “Growth (Fig. S2D)” value (Rapamycin.10nM) was 9.886. The “Growth (Fig. S2D)” value (Rapamycin.50nM) was 9.356, the “Growth (Fig. S2D)” value (SC.pH3) was 10.3927 and the “Growth (Fig. S2D)” value (SC.pH6) was 11.04. The “Growth (Fig. S2D)” value (SDS.0.01.) was 10.9614, the “Growth (Fig. S2D)” value (SDS.0.02.) was 10.9777 and the “Growth (Fig. S2D)” value (SDS.0.05.) was 10.8408. The “Growth (Fig. S2D)” value (Sorbitol.10mM) was 10.9835, the “Growth (Fig. S2D)” value (Sorbitol.1mM) was 11.0132 and the “Growth (Fig. S2D)” value (Sorbitol.5mM) was 10.8904.
